Two molecules from article doi:10.1101/2020.10.04.325654 (bioRxiv, 2020) can be followed below.

Test [1] has as its target T1, GST-SdhA-CBM2 (Legionella pneumophila, UniProt Q6RCQ3 1029-1260). Description: ELISA. (In general: An ELISA detects its analyte on a solid surface through an enzyme-linked reagent.)
For test [2], the target named is T1, GST-SdhA-CBM2. Description: pull-down.

B1: His-tagged ASH/RhoGAP domain of OCRL (536aa-901aa) (domain or fragment)
chain: not shown
Regarding B1, the binding result in the test with GST-SdhA-CBM2 [1] is given as “binds”.

B2: 6xHis-OCRL (enzyme)
chain: not shown
For B2, in the test with GST-SdhA-CBM2 [2], the binding result was “binds”.
